According to PMC3675483 (Nucleic Acids Research, 2013):

Legend:
[1] = molecular target: Schmallenberg virus (SBV) nucleocapsid (N) protein (Schmallenberg virus); assay: crystal structure
[2] = molecular target: Schmallenberg virus (SBV) nucleocapsid (N) protein (Schmallenberg virus); assay: negative-stain electron microscopy with single-particle averaging
[3] = molecular target: Schmallenberg virus (SBV) nucleocapsid (N) protein (Schmallenberg virus); assay: SEC
[4] = molecular target: Selenomethionine-substituted SBV N protein (Schmallenberg virus); assay: crystal structure
SEC = molecular target: the molecule itself; assay: SEC
[5] = molecular target: T1, SBV N (nucleocapsid) wild type (Schmallenberg virus isolate BH80/11-1, UniProt H2AM13 1-233); assay: fluorescence polarization
T1 sequence: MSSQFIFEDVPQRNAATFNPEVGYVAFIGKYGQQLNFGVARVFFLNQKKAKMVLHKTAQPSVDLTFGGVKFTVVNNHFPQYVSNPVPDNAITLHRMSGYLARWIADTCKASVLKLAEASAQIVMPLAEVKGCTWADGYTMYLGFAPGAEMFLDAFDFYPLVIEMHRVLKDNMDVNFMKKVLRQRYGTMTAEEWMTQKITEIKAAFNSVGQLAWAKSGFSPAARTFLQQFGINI

[6] = molecular target: BUNV N (nucleocapsid) wild type (Bunyamwera virus, UniProt P16495 1-233); assay: fluorescence polarization

Molecule: Schmallenberg virus (SBV) nucleocapsid (N) protein (natural protein)
- stoichiometry N [1]: 4
- stoichiometry N [2]: 4
- stoichiometry N [3]: 4

Molecule: Selenomethionine-substituted SBV N protein (natural protein)
- stoichiometry N [4]: 4

B1: Bunyamwera virus (BUNV) nucleocapsid (N) protein (natural protein)
chain: MIELEFHDVAANTSSTFDPEVAYANFKRVHTTGLSYDHIRIFYIKGREIKTSLAKRSEWEVTLNLGGWKITVYNTNFPGNRNNPVPDDGLTLHRLSGFLARYLLEKMLKVSEPEKLIIKSKIINPLAEKNGITWNDGEEVYLSFFPGSEMFLGTFRFYPLAIGIYKVQRKEMEPKYLEKTMRQRYMGLEAATWTVSKLTEVQSALTVVSSLGWKKTNVSAAARDFLAKFGINM
- stoichiometry N (SEC): 4

B2: BUNV48AG (ssRNA)
RNA: AGUAGUGUACUCCACACUACAAACUUGCUAUUGUUGAAAAUCGCUGUG
- Kd [5]: 21.3 ± 1 nM
- Kd [6]: 62.9 ± 5 nM
